# Test results as given in patent publication US20180171001A1.
# Changes are numbered by the printed parent chain.
# B1: 8ANC3630 (antibody, V domains shown)
# VH: QIHLVQSGTEVKKPGSSVTVSCKAYGVNTFGLYAVNWVRQAPGQSLEYIGQIWRWKSSASHHFRGRVLISAVDLTGSSPPISSLEIKNLTSDDTAVYFCTTTSTYDRWSGLHHDGVMAFSSWGQGTLISVSA
# VL: DIQMTQSPSTLSASIGDTVRISCRASQSITGGWLAWYHQRPGKAPRLLIYRGSRLLGGVPSRFSGSAAGTDFTLTIANLQAEDFGTFYCQQYDTYPGTFGQGTKVEVKR
# B2: γ15κ11 (antibody, V domains shown)
# VH: B1 VH with L68I, T102A, R107K
# VL: B1 VL with I15V, D17G
# B3: γ22κ5 (antibody, V domains shown)
# VH: B1 VH with S77P, R107K
# VL: B1 VL with I15T, G32N, L34V, H38Q, S53A, R54A, S64R, A77G
# B4: γ23κ11 (antibody, V domains shown)
# VH: B1 VH with L68I, Y105S, R107Y
# VL: B1 VL with I15V, D17G
# B5: 8ANC3430 (antibody, V domains shown)
# VH: B1 VH with L68I, Y105S, R107Y
# VL: B1 VL with I15V
# B6: γ3κ11 (antibody, V domains shown)
# VH: QIHLVQSGTEVKKPGSSVTVSCKAYGVNTFGLYAVSWVRQAPGQRLEYIGQIRRWKSSASHHFRGRVTVSAVDPTGSSPPISSLEIRDLTTDDTAVYFCTTTSTSDYWSGLHNERGTAFSSWGQGTLISVSA
# VL: B1 VL with I15V, D17G
# B7: 8ANC3044 (antibody, V domains shown)
# VH: B1 VH with K12R, R107K
# VL: B1 VL with G32N, L34V, H38Q, S53A, R54A, A77G, A81T
# B8: γ59κ5 (antibody, V domains shown)
# VH: B1 VH with S45G, L89V, R107E, G110D
# VL: B1 VL with I15T, G32N, L34V, H38Q, S53A, R54A, S64R, A77G
# B9: γ20κ11 (antibody, V domains shown)
# VH: B1 VH with T19A, H62D, L68I, T101A, Y105P, R107Y
# VL: B1 VL with I15V, D17G
# B10: γ22κ11 (antibody, V domains shown)
# VH: B1 VH with S77P, R107K
# VL: B1 VL with I15V, D17G
# B11: γ3κ5 (antibody, V domains shown)
# VH: B6 VH
# VL: B1 VL with I15T, G32N, L34V, H38Q, S53A, R54A, S64R, A77G
# B12: γ23κ5 (antibody, V domains shown)
# VH: B1 VH with L68I, Y105S, R107Y
# VL: B1 VL with I15T, G32N, L34V, H38Q, S53A, R54A, S64R, A77G
# Molecular target: Env of HIV-1 strain X1254_c3 (HIV-1)
# Assay: cell-based or functional assay
row,Binder,neutralization IC50
1,B1,2.38 µg/mL
2,B2,13.7 µg/mL
3,B3,1.52 µg/mL
4,B4,1.7 µg/mL
5,B5,4.28 µg/mL
6,B6,2.31 µg/mL
7,B7,4.54 µg/mL
8,B8,9.42 µg/mL
9,B9,7.5 µg/mL
10,B10,> 15 µg/mL
11,B11,1.72 µg/mL
12,B12,0.919 µg/mL

# Molecular target: Env of HIV-1 strain H086.8 (HIV-1)
# Assay: cell-based or functional assay
row,Binder,neutralization IC50
1,B1,0.3 µg/mL
2,B2,> 15 µg/mL
3,B3,> 15 µg/mL
4,B4,> 15 µg/mL
5,B5,> 23 µg/mL
6,B6,0.778 µg/mL
7,B7,3.83 µg/mL
8,B8,> 15 µg/mL
9,B9,> 15 µg/mL
10,B10,> 15 µg/mL
11,B11,0.434 µg/mL
12,B12,0.474 µg/mL

# Molecular target: Env of HIV-1 strain REJO4541.67 (HIV-1)
# Assay: cell-based or functional assay
row,Binder,neutralization IC50
1,B1,2.65 µg/mL
2,B2,> 15 µg/mL
3,B3,0.795 µg/mL
4,B4,0.14 µg/mL
5,B5,0.198 µg/mL
6,B6,0.091 µg/mL
7,B7,0.278 µg/mL
8,B8,4.67 µg/mL
9,B9,> 15 µg/mL
10,B10,> 15 µg/mL
11,B11,0.097 µg/mL
12,B12,0.091 µg/mL

# Molecular target: Env of MuLV
# Assay: cell-based or functional assay
row,Binder,neutralization IC50
1,B1,> 30 µg/mL
2,B2,> 30 µg/mL
3,B3,> 30 µg/mL
4,B4,> 30 µg/mL
5,B5,> 23 µg/mL
6,B6,> 30 µg/mL
7,B7,> 30 µg/mL
8,B8,> 30 µg/mL
9,B9,> 30 µg/mL
10,B10,> 30 µg/mL
11,B11,> 15 µg/mL
12,B12,> 30 µg/mL

# Molecular target: Env of HIV-1 strain PVO.4 (HIV-1)
# Assay: cell-based or functional assay
row,Binder,neutralization IC50
1,B1,0.102 µg/mL
2,B2,6.7 µg/mL
3,B3,0.352 µg/mL
4,B4,0.103 µg/mL
5,B5,0.206 µg/mL
6,B6,0.074 µg/mL
7,B7,0.26 µg/mL
8,B8,> 15 µg/mL
9,B9,> 15 µg/mL
10,B10,> 15 µg/mL
11,B11,0.081 µg/mL
12,B12,0.043 µg/mL

# Molecular target: Env of HIV-1 strain 231965.c1 (HIV-1)
# Assay: cell-based or functional assay
row,Binder,neutralization IC50
1,B1,0.375 µg/mL
2,B2,5.1 µg/mL
3,B3,0.69 µg/mL
4,B4,0.543 µg/mL
5,B5,1.19 µg/mL
6,B6,0.455 µg/mL
7,B7,1.33 µg/mL
8,B8,> 15 µg/mL
9,B9,> 15 µg/mL
10,B10,> 15 µg/mL
11,B11,0.697 µg/mL
12,B12,0.291 µg/mL

# Molecular target: Env of HIV-1 strain ZM53M.PB12 (HIV-1)
# Assay: cell-based or functional assay
row,Binder,neutralization IC50
1,B1,> 30 µg/mL
2,B2,> 15 µg/mL
3,B3,> 15 µg/mL
4,B4,> 15 µg/mL
5,B5,> 23 µg/mL
6,B6,> 15 µg/mL
7,B7,15.2 µg/mL
8,B8,24.1 µg/mL
9,B9,> 15 µg/mL
10,B10,> 15 µg/mL
11,B11,> 15 µg/mL
12,B12,5.88 µg/mL

# Molecular target: Env of HIV-1 strain Du172.17 (HIV-1)
# Assay: cell-based or functional assay
row,Binder,neutralization IC50
1,B1,> 30 µg/mL
2,B2,> 15 µg/mL
3,B3,> 15 µg/mL
4,B4,11.3 µg/mL
5,B5,> 23 µg/mL
6,B6,> 15 µg/mL
7,B7,> 30 µg/mL
8,B8,> 15 µg/mL
9,B9,> 15 µg/mL
10,B10,> 15 µg/mL
11,B11,3.73 µg/mL
12,B12,1.81 µg/mL

# Molecular target: Env of HIV-1 strain R1166.c1 (HIV-1)
# Assay: cell-based or functional assay
row,Binder,neutralization IC50
1,B1,1.45 µg/mL
2,B2,9.81 µg/mL
3,B3,2.4 µg/mL
4,B4,1.61 µg/mL
5,B5,3.64 µg/mL
6,B6,1.79 µg/mL
7,B7,2.38 µg/mL
8,B8,28.2 µg/mL
9,B9,20.2 µg/mL
10,B10,> 15 µg/mL
11,B11,2.07 µg/mL
12,B12,1.07 µg/mL

# Molecular target: Env of HIV-1 strain 3016.v5.c45 (HIV-1)
# Assay: cell-based or functional assay
row,Binder,neutralization IC50
1,B1,0.136 µg/mL
2,B2,1.32 µg/mL
3,B3,0.103 µg/mL
4,B4,0.159 µg/mL
5,B5,0.271 µg/mL
6,B6,0.145 µg/mL
7,B7,0.242 µg/mL
8,B8,> 15 µg/mL
9,B9,> 15 µg/mL
10,B10,> 15 µg/mL
11,B11,0.314 µg/mL
12,B12,0.091 µg/mL

# Molecular target: Env of HIV-1 strain 3365.v2.c20 (HIV-1)
# Assay: cell-based or functional assay
row,Binder,neutralization IC50
1,B1,> 30 µg/mL
2,B2,> 15 µg/mL
3,B3,> 15 µg/mL
4,B4,> 15 µg/mL
5,B5,> 23 µg/mL
6,B6,> 15 µg/mL
7,B7,> 30 µg/mL
8,B8,> 15 µg/mL
9,B9,> 15 µg/mL
10,B10,> 15 µg/mL
11,B11,> 15 µg/mL
12,B12,> 15 µg/mL

# Molecular target: Env of HIV-1 strain 3415.v1.c1 (HIV-1)
# Assay: cell-based or functional assay
row,Binder,neutralization IC50
1,B1,28 µg/mL
2,B2,> 15 µg/mL
3,B3,> 15 µg/mL
4,B4,> 15 µg/mL
5,B5,> 23 µg/mL
6,B6,> 15 µg/mL
7,B7,7.56 µg/mL
8,B8,> 15 µg/mL
9,B9,> 15 µg/mL
10,B10,> 15 µg/mL
11,B11,> 15 µg/mL
12,B12,1.48 µg/mL

# Molecular target: Env of HIV-1 strain YU2.DG (HIV-1)
# Assay: cell-based or functional assay
row,Binder,neutralization IC50
1,B1,0.468 µg/mL
2,B2,4.12 µg/mL
3,B3,0.569 µg/mL
4,B4,0.34 µg/mL
5,B5,0.545 µg/mL
6,B6,0.276 µg/mL
7,B7,0.747 µg/mL
8,B8,7.28 µg/mL
9,B9,> 15 µg/mL
10,B10,> 15 µg/mL
11,B11,0.2 µg/mL
12,B12,0.136 µg/mL

# Molecular target: Env of HIV-1 strain ZM109F.PB4 (HIV-1)
# Assay: cell-based or functional assay
row,Binder,neutralization IC50
1,B1,> 30 µg/mL
2,B2,> 15 µg/mL
3,B3,> 15 µg/mL
4,B4,> 15 µg/mL
5,B5,> 23 µg/mL
6,B6,> 15 µg/mL
7,B7,> 30 µg/mL
8,B8,> 15 µg/mL
9,B9,> 15 µg/mL
10,B10,> 15 µg/mL
11,B11,> 15 µg/mL
12,B12,> 15 µg/mL

# Molecular target: Env of HIV-1 strain 250-4 (HIV-1)
# Assay: cell-based or functional assay
row,Binder,neutralization IC50
1,B1,> 30 µg/mL
2,B2,> 15 µg/mL
3,B3,> 15 µg/mL
4,B4,> 15 µg/mL
5,B5,> 23 µg/mL
6,B6,> 15 µg/mL
7,B7,> 30 µg/mL
8,B8,> 15 µg/mL
9,B9,> 15 µg/mL
10,B10,> 15 µg/mL
11,B11,> 15 µg/mL
12,B12,> 15 µg/mL

# Molecular target: Env of HIV-1 strain 251-18 (HIV-1)
# Assay: cell-based or functional assay
row,Binder,neutralization IC50
1,B1,0.73 µg/mL
2,B2,> 15 µg/mL
3,B3,1.7 µg/mL
4,B4,2.49 µg/mL
5,B5,6.17 µg/mL
6,B6,> 15 µg/mL
7,B7,0.858 µg/mL
8,B8,6.96 µg/mL
9,B9,> 15 µg/mL
10,B10,> 15 µg/mL
11,B11,0.721 µg/mL
12,B12,0.176 µg/mL
